Test results: the DeepSol protein solubility set

Assay: soluble on expression in E. coli; label from the status in PepcDB or PDB records

Sequence | soluble on expression in E. coli
MSLKSVIIGTAGHIDHGKTSLIKALNGFEGDSLKEEQERQITINLSFSNLKLKDKNISFIDVPGHKDLVKTMVSGAFGFSVCLFVVDINEGLKEQSLEHLEILKILDIKNIILVLSKCDLCENIEQKSVEILEELKNLDYPILKVFHTSIKNNQGIEELKNYLYTIENKENDEELIFHYYIDRVFSLKGIGTVVTGSLNEGSITLNEKIICLDTQKELIVKNIQNHDTNLEQIKACNRVALSLNCDYKELKKGYLLSKKGYFKAFKECDALVKAKNLQNSKMIFCVGSRQIECKINILKKLENDEFFVHFSFDKNVFLSFDEAFILLQNNRVIGGGKVLNPLSEPLKKEQKNKFLMFLKNKDFKAAFSFLKDAHKYGFGLLSSYQRFKLSHQKALKLAKELNQVFVDEKNLNVYHLQSLEEIKNFIKFILEKNPYAMLSAHSLALRITWASENFCELGLKEMSNLLDFQNGIYFKKGIDFEKLQEKNNNQMYEILKKQGIKPEAPYNLYDFLELDREGHHHHHH | soluble
MGSDKIHHHHHHLRILNTAATGVRAQQTALDVLGNNMSNVNTPGYKAQRVNFAEALAAEMRPAEREFNGQPVGERIDVGAGVIYPTIDTDYRQGIIRETENPFDLAIDGEGFFPVRTANGESRYTRVGNFELDSQGKLVNSDGYILEVKIPADAMDLYVDETGNITGFIDDEERVLGRVVVNDPEGEGYPVGPIDMDELGRPLDWNGDILPTAFAVPEGAEDVQISTEGILSATIDGSRQTLGQINIITFANPEGLVRDGDNLYFAPDAAGVTGDELVGTPGSQVEERTLGKLKTQSLEQSNVNLASAMTEMIQVQRAYQLNARMITNGDQMWSMANSLRR | not soluble
MASNSRSSISPWTFSQNKMFERALAVYDKDTPDRWHNVAKAVGGKTVEEVKRHYDILVEDLINIETGRVPLPNYKTFESNSRSINDFDTRYITKYLYMMLSIYFDNHSSDFEKFSQKVLVSYISLV | soluble
MVTFKPKVLHFVNATNLNQVDGTGTIVNEWIKAAGGQNALKQKGNMISVTTETLAKSDPDVIIVGSATTAEARAALKKNAVLSKLTAVKKNRVYGNPQGTFPWDRYSAEEALQVLWAAKKLHPDQFQLEHHHHHH | not soluble
MSTIELNKRQEHILQIVKENGPITGEHIAEKLNLTRATLRPDLAILTMSGFLEARPRVGYFYTGKTGTQLLADKLKKLQVKDFQSIPVVIHENVSVYDAICTMFLEDVGTLFVVDRDAVLVGVLSRKDLLRASIGQQELTSVPVHIIMTRMPNITVCRREDYVMDIAKHLIEKQIDALPVIKDTDKGFEVIGRVTKTNMTKILVSLSENEILAAAAAALEHHHHHH | soluble
MTEQTFSIREAVPTDADQLLSVMSKIGSETPYLVMDERGMAMSTTELAENLATLYESPNNVLLVALAGEAIIGTASVSASSKKRMEHIGEIGISILKEYWGYGLGSILMEELIRWAHESHVIRRLELTVQDRNQRAIHVYKKLGFETEAIMPRGAKTDQGEFLDVHLMRLLID | not soluble
MSLEKQIESYYQEIAQLIIDMIPEEWAEVRFYAQEDHDGWKIFFFHYLSASSDEWTKDIDIRDVIKVPQDEFMEKYNELSFCISDFRKDYAEAFGEPWMSFQMTFYASGKFNIDFYYDKNPFDTFLTRLAWQYEHFGTIPEDSFYKETLNEYLEEKAQGKRYPFLEPLKEEEGHHHHHH | soluble
ESRSQISRRNQDMLLSVLDLEKMTVDDIMVPRSEIIGIDINDDWKSILRQLSHSPHGRIVLYRDSLDDAISMLRVREAWRLMSEKKEFTKETMLRAADEIYFVPEGTPLSTQLVKFQRNKKKVGLVVNEYGDIQGLVTVEDILE | not soluble
MGSDKIHHHHHHMTEGISIAVLDNDSWSLRAIARWIDGSSPLYHVIWQTTSAAEAIHRCIYTNDKPNVLLLDMALNDATGISVCTQIRKRTADIGIIGITAYDPERYKTDLALAGGQALIAKENLAHVCNKVLPIVAQGKSAEPNSFPTAKQAHDILAEQPSSFSQIKQLSPRELQVLRLYTQNNNTSEIASQLGISSNTVFSYIHRVSKKIGTKNRSEIIRLCKKYDIL | not soluble
MKRKFLIASHGNLAKGFQSSLDILADKGKELAVINAYVTPEDYTPIIQTFLQSLGAEEQAIILTDLYGGSVNQKIVQEVMTTKPDNVFIISNANLAIALSLIFLKEGEKLTKEDIQAAIAEAQIQFVELNPSNEEENFF | not soluble
MSLSLWQQCLARLQDELPATEFSMWIRPLQAELSDNTLALYAPNRFVLDWVRDKYLNNINGLLNTFCGADAPQLRFEVGTKPVTQTLKTPVHNVVAPAQTTTAQPQRVAPAARSGWDNVPAPAEPTYRSNVNVKHTFDNFVEGKSNQLARAAARQVADNPGGAYNPLFLYGGTGLGKTHLLHAVGNGIMARKPNAKVVYMHSERFVQDMVKALQNNAIEEFKRYYRSVDALLIDDIQFFANKERSQEEFFHTFNALLEGNQQIILTSDRYPKEINGVEDRLKSRFGWGLTVAIEPPELETRVAILMKKADENDIRLPGEVAFFIAKRLRSNVRELEGALNRVIANANFTGRAITIDFVREALRDLLALQEKLVTIDNIQKTVAEYYKIKIADLLSKRRSRSVARPRQMAMALAKELTNHSLPEIGDAFGGRDHTTVLHACRKIEQLREESHDIKEDFSNLIRTLSSLEHHHHHH | not soluble
MHHHHHHSSGRENLYFQGSVFGVPLTVNVQRTGQPLPQSIQQAMRYLRNHCLDQVGLFRKSGVKSRIQALRQMNEGAIDCVNYEGQSAYDVADMLKQYFRDLPEPLMTNKLSETFLQIYQYVPKDQRLQAIKAAIMLLPDENREVLQTLLYFLSDVTAAVKENQMTPTNLAVCLAPSLFHLNTLKRENSSPRVMQRKQSLGKPDQKDLNENLAATQGLAHMIAECKKL | soluble
EVVKRDRIRNKDRPAMQLYQPGARSRNRLCPPDDSTKSGDSAAERKQESGISHRKEGGEE | soluble
MSKDEIKKPVVLIYCDTIEGTNIYLKKICEGLEEEGVPFQIQQVEKVEDSVEVLAQNASRNSNLGIGIGVLKNGDCALLQRRLPPNLPIQTLRGEKYDPNLYRNIGINAARLAKNLPLVFA | not soluble
MKVAIASDHGGVHIRNEIKELMDELQIEYIDMGCDCGSGSVDYPDYAFPVAEKVVSGEVDRGILICGTGIGMSISANKVKGIRCALAHDTFSAKATREHNDTNILAMGERVIGPGLAREIAKIWLTTEFTGGRHQTRIGKISDYEEKNL | soluble
MPSVFEAKGLPSLGPPVSNWGTNQPGTGVARNTRREKLGLWSAVALQQHFTATGGRGGLPLPLSSSALPSQEDRGTAAALGDNAGFSSGAVSSDLRSHLGPAPSLAGRLHKPTLAQRMGLVPGPTPPPSADDWRVITHRALQREHRHARDAGSPGANPSICPICQMSYSTNCDEGQVILSCSHVFHARCFRSFERYVRAQQRADALRIGEVSAPLACPVCRTQSYYKRIFYEGKAVAQRAAIVKVQAAVRGLLARRAYIKIKLQNNPEFRTRYVQERLARLSAAWQTFCAEQEQRRAGLQTALTVQQEMARAAFLSEEAWAEIWRKAVHGPSTSSEPGSSAAPSTAGASVQCPICLELIHCSQCPGTGAAASHAGGVRRLTGKDAVAAMWAAYEARKVAKRLPSVEPKAARASAGALVRSAVKGAAQRKTGNSLTPMPGAVASVRDGKVASSRAPEHRAGRQKGFAQPTAAAPWPEHANAFAALSSAPGVDAVGAHEAAVVLPQSGILLSCGHCFHAACIDCYERFHERRCLDMVEQDGGAVVAFPSRCPVCRSGYAKHPM | not soluble
MGSDKIHHHHHHMVNEELLWVLWQHLLFSVESLHTTTGEPIIIKHTGTLNVHAGPDFSLAKLCIDGIEWAGDVEIHTKASDWYKHKHQHNPAYESVILHVVYEADIDITRADGSCIPVLELKDRIHTMHLETYGYLMEEKKTVPCAHAIHEIPAIVMEQMKQRVLIERLERKTDGLFQLLTDQPNWKMIAGRLIFKSFGTGLNDYLFERMAQQMDFNKLDRLSYAPKSIEALFFGCSGMLEKDWADDFPAALKKEYTYLQRTQTVTCTIDSSEWKFLRTRPVNFPTIRLAQLAALFSNTDWYASFSSITSVKYAEDFLNVSLSDYWLNHYRFDVLSKPAPKHIGKTFANTFLLNAYIPFLVLHARYYKNETTWEQVFEMLDTIQAEDNAITRVWKELGIRMDTGFDSQSGLELYKMYCTHKKCLSCSIGFSILRNASVSAVVK | not soluble
MSLITVANRIFVNPERAAAFEERFRRRPRRVDRQPGFIADHVLRPTQAGDPYVVLSFWDSRAAFEAWRTSPGFKDGHKEGHHHHHH | not soluble
